± gives the standard error. Fewer inactive variants are shown than the library holds.
B1: glmS ribozyme (parent)
chain: AUAAAAGCGCCAGAACUACAGAAAUGUAGUUGACGAGGAGGAGGUUUAUCGAAUUUUCGGCGGAUGCCUCCAAA

How the values were obtained:
Conditions in all cases: with glucosamine-6-phosphate
glucosamine-6-phosphate [1] = variants of: B1; test: self-cleavage kobs at 640 uM GlcN6P; higher = faster cleavage; RNA array
How it was run: (§1)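 Tiles bearing barcoded ribozyme variants, transcribed in situ by E. coli RNA polymerase on sequenced MiSeq chips, were imaged over ~14 h at 37 °C using a hybridised Cy3 probe. Glucosamine-6-phosphate was supplied at 40 μM to 10 mM in HEPES/KCl/Mg(OAc)2 buffer. kobs came from one- or two-exponential decay fits to normalised per-tile medians, and weighted Michaelis–Menten fits then provided kcat and KM.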

glucosamine-6-phosphate [2] = variants of: B1; test: self-cleavage kobs at 2500 uM GlcN6P; higher = faster cleavage; RNA array
How it was run: as §1

glucosamine-6-phosphate [3] = variants of: B1; test: self-cleavage kobs at 10000 uM GlcN6P; higher = faster cleavage; RNA array
How it was run: as §1

Variant | self-cleavage kobs at 640 uM GlcN6P (glucosamine-6-phosphate [1]) [s⁻¹] | self-cleavage kobs at 2500 uM GlcN6P (glucosamine-6-phosphate [2]) [s⁻¹] | self-cleavage kobs at 10000 uM GlcN6P (glucosamine-6-phosphate [3]) [s⁻¹]
AUAAAAGCGCCAGAACUACAGAAAUGUAGUUGACGAGGAGGAGGUUUAUCAAAUUUUCGGCGGAUACCACCAAA [G51A G66A U69A] | 0.000177 ± 7.9e-05 | – | –
AUAAAAGCGCCAGAACUACAGAAAUGUAGUUAACGAGGAGGAGGUUUAGCGAAUUUUGGGCGUAUGCCGCCAAA [G32A U49G C58G G63U U69G] | 0.000279 ± 9.2e-05 | 0.000153 ± 3.7e-05 | –
AUAAAAGCGCCACAACUACAGAAAUGUAGUAGACGAGUUCGAGGUUUAUCGAAUUUUCGGCGGAUGCCUCCAAA [G13C U31A G38U A39U G40C] | < 1e-05 | – | –
AUAAAAGCGCCAGAACUACAGAAAUGUAGUUGACAAGGAGGAGGUUUAUCGAAUGUUCGGCGAGUGCCUCCAAA [G35A U55G G63A A64G] | < 1e-05 | – | –
AUAAAAGGGCCAGAACUACAGAAAUGUAGUUGACGAGGAGGAGGUUUAUCGAAUUUUUGGCGGAUGCCUCCAAA [C8G C58U] | < 1e-05 | < 1e-05 | < 1e-05
AUAAAAGCGCCAGAUCUACAGAAAUGUAGUUGACGAGUCGUAGGUUUAGCGAAUUUUCGGCGGAUGCCUGGAAA [A15U G38U A39C G41U U49G C70G C71G] | < 1e-05 | – | –
AUAAAAGCGCCAGAAUUACAGAAAUGUAGUUGACGAGGUGGCGGUUUAUCGAAUUUUCGGCGGAUGCCUCCAAA [C16U A39U A42C] | 8.5e-05 ± 2.3e-05 | 0.000172 ± 3.6e-05 | –
AUAAAAGCGCCAGAACUACAGAAAUGUAGUUGACGAGGAGGAAGUGUAUCGAAUUUUCGGCGGAUGCCUGCAAA [G43A U46G C70G] | < 1e-05 | < 1e-05 | –
AUAAAAGCGCUAGAACUACAGAAAUGUAGUUGACGAGGAGGAGGUUUAUUGAAUUUUCGCCGGAUGCCUCCAAA [C11U C50U G60C] | < 1e-05 | – | –
AUAAAAGCGCCAGAGCUACAGAAAUGUAGUUGACGAGGAGGAGGUUUAUCGAAUUAUCGGGGGAUGCCUCCAAA [A15G U56A C61G] | < 1e-05 | – | –
AUAAAAGCGCUCGAACUACAGAAAUGUAGUUGACGAGGAGGAGGUUUAUCGAAUUUUCGGCGGAUGCCUGCAAA [C11U A12C C70G] | 0.000165 ± 6.8e-05 | – | –
AUAAAAGCGCUAGAACUACAGAAAUGUAGUUGACGAGGAGCAGGUUUAUCGAAUUUUCGGCGGAUGUCUCCAAA [C11U G41C C67U] | < 1e-05 | – | –
AUAAAAGCGCCAGAACUACAGAAAUGUAGUUGACGAGGAGGAGGUGUAUCGAAUUUUCGGCGAAUGCCUGCAAA [U46G G63A C70G] | 5.25e-05 ± 2.2e-05 | – | –
AUAAAAGCGCCCGAACUACAGAAAUGUAGUUGACGAGGAGGAGGUCUAUCGAAUUUUCGGCGGAUGGCUCCAAA [A12C U46C C67G] | 6.73e-05 ± 1.7e-05 | 0.000179 ± 5.3e-05 | –
AUAAAAGCGCCAAAAAUACAGAAAUGUAGUUGACGAGGAGGAGGUUUAUCGAAUUUUCGGCGGAUGCGUCCAAA [G13A C16A C68G] | 7.67e-05 ± 3.7e-05 | – | –
AUAAAAGCGCGAGAAGUACAGAAAUGUAGUUGACGAGAAGGAGGUUUAUCGAAUUUUCGGCGAAUGCCUCCAAA [C11G C16G G38A G63A] | < 1e-05 | – | –
AUAAAAGCGCCAGAACUACAGAAAUGUAGUUGACGCGCAGGAUGUUUAUCGAAGUCUCGGCGGAUGCCUCCAAA [A36C G38C G43U U54G U56C] | < 1e-05 | – | –
AUAAAAGCGCCAGAACUACAGAAAUGUAGUUGAAGAGGAGGAGGUUUAUCGAAUUUUCGGCGGAUGACUCUAAA [C34A C67A C71U] | < 1e-05 | – | –
AUAAAAGCGCCAGAACUACAGAAAUGUAGCUGACGAGUAGGAGGUUUAUCGAAUUUCCGGCGGGUGCCUCCAAA [U30C G38U U57C A64G] | < 1e-05 | – | –
AUAAAAGCGCCAGAACUACAGAAAUGUAGUUGACGAGGAGGAGGUUUAUCGAUUUAUCGGCGGAUGCCUCUAAA [A53U U56A C71U] | 0.00121 ± 0.00015 | 0.00323 ± 0.00064 | –
AUAAAAGCGCCAGAUCUACAGAAAUGUAGUUGACGAGGAGGAGGUUUAUGGAAUUUUCGGCGGAUGCCUCGAAA [A15U C50G C71G] | 0.000108 ± 2.6e-05 | 0.000148 ± 5.1e-05 | –
AUAAAACCGCCAGAACUACAGAAAUGUAGUUGACGAGGAGGAUGUUUAUCGACUUUUCGGCGGAUUCCUCCAAA [G7C G43U A53C G66U] | < 1e-05 | – | –
AUAAAAACGCCAGAACUACAGAAAUGUAGUUGACGAGGAGGAGGUUUAUCGAAUUGUCGGCGGAUGCCACCAAA [G7A U56G U69A] | 0.00091 ± 0.00042 | – | –
AUAAAAGCGCCAGAACUACAGAAAUGUAGUUGACGAGGAGGAGGUUUAUCGAAUUUGCGGCGGAUGACGCCAAA [U57G C67A U69G] | 4.87e-05 ± 2.3e-05 | – | –

Variant | self-cleavage kobs at 640 uM GlcN6P (glucosamine-6-phosphate [1]) [s⁻¹] | self-cleavage kobs at 2500 uM GlcN6P (glucosamine-6-phosphate [2]) [s⁻¹] | self-cleavage kobs at 10000 uM GlcN6P (glucosamine-6-phosphate [3]) [s⁻¹]
AUAAAUGCGCCAGCACUACAGAAAUGUAGUUGACGAGGAGGAGGUUUAUCCAAUUUUCGGCGGAUGCCUCCAAA [A6U A14C G51C] | < 1e-05 | < 1e-05 | –
AUAAAAGCGCCAGAGCUACAGAAAUGUAGUUGACGAGGAGGAUGUUUUUUGAAUUUUCGGCGGAUGCCUCCAAA [A15G G43U A48U C50U] | < 1e-05 | – | –
AUAAAUGCGCCAGAACUACAGAAAUGUAGUUGACGAGGAUGAGGUUUAUCGAAUUUUCGGCGGACGCUUCCAAA [A6U G40U U65C C68U] | < 1e-05 | < 1e-05 | –
AUAAAAGGGCCAGAACUACAGAAAUGUAGUUUACGAGUAGGAGAUUUAUCGAAUUUUCGGCGGAUGCCUCCAAA [C8G G32U G38U G44A] | < 1e-05 | – | –
AUAAAAGCGCCAGAACUACAGAAAUGUCGUUGACGAGGAGGAGGUUUAUCGAAUUUUCGGCGGAUGCCUCCAAA [A28C] | 0.0103 ± 0.0026 | – | 0.0679 ± 0.022
AUAAAAGCGCCAGAACUACAGAAAUGUAGUUGACGAGGCGGAGGGUUAUCGAAUUGUCGGCGGAUGCCUCCAAA [A39C U45G U56G] | 7.85e-05 ± 2.3e-05 | – | –
AUAAAAGCUCCAGAACUACAGAAAUGUACUUGACGAGGAGGAGGUUUAUCGAAGUUUCGGCGGAUGCCACCAAA [G9U G29C U54G U69A] | < 1e-05 | < 1e-05 | –
AUAAAGGCGCCAGCACUACAGAAAUGUAGUUGAUGAGGAGGAGGUUUAUCGAAUUUUCGGCGGAUGCCUCCAAA [A6G A14C C34U] | < 1e-05 | – | –
AUAAAAGCGCCAGAACUACAGAAAUGUAGUUGACGAUGAGGCGGUUUAUAGAAUUUUCGGCGGUUGCCUCCAAA [G37U A42C C50A A64U] | < 1e-05 | – | –
AUAAAAGCGCCAGAACUACAGAAAUGUAGUUGACGAGGAGGAGGUUUAUGGAAUUUUCGGAGGAUGUCUCCAAA [C50G C61A C67U] | 0.000392 ± 0.0001 | 5.47e-05 ± 2.1e-05 | –
AUAAAACGCCCAGAACUAAAGAAAUGUAGUUGACGAGGAGGAGGUUUAUCGAAUUUUCGGAGGAUGCCUCCAAA [G7C C8G G9C C19A C61A] | < 1e-05 | < 1e-05 | –
AUAAAAGCGCCAGAAUUACAGAAAUGUAGUUGACGAAGAGGAGGUUUAUCGAACUUUCGGCGGAUGCCUCCAAA [C16U G37A U54C] | 0.000373 ± 8.1e-05 | 0.000599 ± 0.00013 | 0.00176 ± 0.00031
AUAAAGGCGCCAGCAGUACAGAAAUGUAGUUGACGAGGACGAGGUUUAUCGAAUUUUCGGCGGAUGCCUCCAAA [A6G A14C C16G G40C] | < 1e-05 | < 1e-05 | –
AUAAAAGCGCCAGAACUACAGAAAUGUAGUUGACGAGGAGUAGGUUGAUCUAAUUUUCGGCGGAUGCCUCCAAA [G41U U47G G51U] | < 1e-05 | < 1e-05 | –
AUAAAAGCGCCGGAACUACAGAAAUGUAGUUGACGAUGAGGAGGUUUGUCGAAUUUUCGGCGGAUGCCUCCAAA [A12G G37U A48G] | < 1e-05 | < 1e-05 | –
AUAAAAGCGCCAGAACUACAGAAAUGUAGUUUACGAGGGGGAGGUUUAUCGAAUUUUCGGCGGAUGCCUCUAAA [G32U A39G C71U] | 0.000114 ± 3.4e-05 | 0.00038 ± 0.0001 | –
AUAAAAGAGCGAGAACUACAGAAAUGUAGUUGACGAGGAGGAGGUUUAUCGAAUUUUCCGUGGAUGCCUCCAAA [C8A C11G G59C C61U] | < 1e-05 | < 1e-05 | –
AUAAAAGUACCAGAACUACAGAAAUGUAUUUGACGAGGAGGAGGUUUAUCGAAUUUUUGGCGGAUGCCUCCAAA [C8U G9A G29U C58U] | < 1e-05 | < 1e-05 | –
AUAAAAGCGCCAGAAAUACAGAAAUGUAGUUGAGGAGGAGGAGGUUUAUCGAAUUUUCGGCGGAUGCGUCCAAA [C16A C34G C68G] | 0.000145 ± 4.7e-05 | 0.000193 ± 6.5e-05 | 4.24e-05 ± 2e-05
AUAAAAGCGCCAUAACUACAGAAAUGUAGUUGACGAGGAGGAGGUUUAUCGAAUGCUCGGCGGAUGCCUCCAAA [G13U U55G U56C] | 7.76e-05 ± 2.4e-05 | 0.000112 ± 2.5e-05 | –
AUAAAAGCGCCAUAACUACAGAAAUGUAGUUGACGAGGAGGAGGUUUAUCGAAUUUUCGGCCGAUGCCUUCAAA [G13U G62C C70U] | < 1e-05 | – | –
AUAAAAGCUCCAGAACUACAGAAAUGUAGUUGACGCGGGGGAGGUUUAUCGAAUUUUCGGCGGAUGCCUUCAAA [G9U A36C A39G C70U] | < 1e-05 | – | –
AUAAAAGCGCCAGAACUACAGAAAUGUACUUGACGAGGAGGAGGUUUAUCGAAUUCUCGGCGGAUGCCUCCAAA [G29C U56C] | 0.000147 ± 3.2e-05 | 0.000116 ± 2.1e-05 | 0.00068 ± 0.00019

Reference: the supplement of paper PMC7125110
